Test results reported in the supplement of paper PMC9170038.

Tested on: MS2 coat protein
Experiment: apparent KD of MS2 coat protein; designed switch direction (-1 OFF switch, 1 ON switch): -1; higher = weaker reporter binding
How it was run: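 Transcription of designed RNA switches on Illumina chips was done by stalled E. coli RNA polymerase. SNAP-549-labelled MS2 coat protein was then titrated in doubling steps from 0.7 or 1.5 nM to 3 µM, with steps of 0.8–1.5 h at the lowest and 10–20 min at the highest concentration. The per-design median over clusters of curve-fitted normalised fluorescence is reported as apparent KD.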

[1] = input ligand: microRNA oligo, concentration not stated
[2] = Eterna round: R95, input ligand: FMN 200 uM
[3] = Eterna round: R95, input ligand: microRNA oligo, concentration not stated
[4] = Eterna round: R95, input ligand: none

| Sequence | apparent KD of MS2 coat protein [1] | apparent KD of MS2 coat protein (input ligand: FMN 200 uM) | apparent KD of MS2 coat protein (input ligand: none) | apparent KD of MS2 coat protein [2] | apparent KD of MS2 coat protein [3] | apparent KD of MS2 coat protein [4] |
| --- | --- | --- | --- | --- | --- | --- |
| AGAUAGUGGUGAGGAUAUCAGAAUAGAAAGAAAUGAGAAGGCACACAUGAGGAUCACCCAUGUGAGUUCUUGAGAUUACAUGGU [Prohibition 41 - Jieux - Exclusion NG 1] (Eterna round: R96, puzzle: Exclusion NG 1) | 14.4 nM | – | – | – | – | – |
| GUGACUGAUGUCAGGAUAUCCGGUGCUAAAGUACAGGAGAAGGGACAUGAGGAUCACCCAUGUAACUUAGCCAG [BmEX4 B.7] (Eterna round: R97, puzzle: Brourd's mod of Exclusion 4) | – | 23.2 nM | 15.4 nM | – | – | – |
| GGAGAGGCAGGAUAUACAUGAGGAUCACCCAUGUGAGCGAGGAGAACGAGCAAGAGAGGUAGAAGGGCCGGGAG [AK-MS2ROC-r4-exclusion3-27] (Eterna round: R97, puzzle: Exclusion 3) | – | 46.5 nM | 44.9 nM | – | – | – |
| GACCCAACCGUUAGGAUAUAGUCGACCUACGGCGACUAGAAGGAACAUGAGGAUCACCCAUGUGUGCGCACAAC [Eternabot (Original) Solution 25] (Eterna round: R97, puzzle: Brourd's mod of Exclusion 4) | – | 190 nM | 60.8 nM | – | – | – |
| UUGUUGUGUGUAGGAUAUGCGUAUUAUUAUUAUGCAGAAGGACAUGAGGAUCACCCAUGUGUAUUAUUAUUAUAUAUUAUAUAU [Title] (Eterna round: R96, puzzle: Exclusion NG 1) | 21.8 nM | 43.3 nM | 25 nM | – | – | – |
| CCCAGUUACUGAGGAUAUCCUACAUGAGGAUCACCCAUGUAAUAAAUGAGGAUUUCGGGUGUCUAGGAGAAGGCAGGGAUAGGC [Ostracism 23 - Jieux - Exclusion NG 2] (Eterna round: R96, puzzle: Exclusion NG 2) | 28.8 nM | 84.9 nM | 50.3 nM | – | – | – |
| UCGAUGUAAGGAUAUCGUGCAAGUUUCAAAAGAGGCUUGUGCGAGAAGGUACAUGAGGAUCACCCAUGUAGGUU [Omei Ex4 B7] (Eterna round: R97, puzzle: Exclusion 4) | – | 207 nM | 75.6 nM | – | – | – |
| GAGGAACAUGAGGAUCACCCAUGUAAGGAUAUGCAAAGAGAGAAAGAAGAAGGAGAAAGCAGAAGGUACAAGGA [JR_Exclu1_Sub073] (puzzle: Exclusion 1) | – | – | – | 42.7 nM | 35.1 nM | 54.2 nM |
| GUUUUCAGACGGAGAUCCUACAUGAGGAUCACCCAUGUCUCUCUUGUUUUUUGCUCGUCUUAUCCUCCUCUGUUCUC [Elimod 31 - Jieux - Sensor, turn-off variant 1] (Eterna round: R97, puzzle: Sensor, turn-off variant 1) | – | 467 nM | 520 nM | – | – | – |
| CCCAUGUUAGGAUAUCGGCUCCGCCGUUCCACAUGGCGCUCCGAGAAGGAACAUGAGGAUCACCCAUGUAAAGA [Raza] (puzzle: Exclusion 4) | – | – | – | – | 34 nM | – |
| AUUGAUAGCACAGGAUAUUGAGAUUUGAAUUGACAAGAAGGGUGUACAUGAGGAUCACCCAUGUAAUGGGAGAAUGAUUGAUUA [JR_ExcNG1_Sub001] (Eterna round: R96, puzzle: Exclusion NG 1) | 1040 nM | 1260 nM | 1640 nM | – | – | – |
| AGUAGGUCUACCUUGGUGGAUCUGCAUUAUUCAAGUGUUACAUGAGGAUCACCCAUGUCCUCAUUUGCUCGUCUUAU [JL turnoff v2 99.25] (puzzle: Sensor v3, turn-off variant 2) | – | – | – | 385 nM | 45.7 nM | 417 nM |
| GCAAGCGAUUAGGCUCGUCUUAUAAAGAAAAGAAUGAAAACAUGAGGAUCACCCAUGUAAGUGGGAAAGUUGAAGUG [JR_SV3TOV2_Sub009] (puzzle: Sensor v3, turn-off variant 2) | – | – | – | 267 nM | 1340 nM | 210 nM |
| AGUACUAACUCGAAAGUGUUAGUACAAUAAGCUUGUGAAACAUGAGGAUCACCCAUGUCCUCAUAAGCUCGUCUUAU [salish99_TOv2_r3_022] (Eterna round: R96, puzzle: Sensor v3, turn-off variant 2) | 430 nM | 16 nM | 18 nM | – | – | – |
| GGGUGCAGGCUGAGAUCCUACAUGAGGAUCACCCAUGUGGUCCGGUGACGUGAGUCACCGGACUUAGCUCGUCUUGU [salish99_S_TOV1_R5_007] (Eterna round: R97, puzzle: Sensor, turn-off variant 1) | – | 162 nM | 192 nM | – | – | – |
| CAAUAGCGAGGAUAUACAUGAGGAUCACCCAUGUGAUCCUUAGGCUGUUGAAGCCUAUGUAGAAGGCGCAAAUU [jl-ex3.4.57 ViennaUCT mod] (Eterna round: R97, puzzle: Exclusion 3) | – | 198 nM | 138 nM | – | – | – |
| UCAAGUAUGUAGGAUAUGAUGUGAUUCUACAUAUCAGAAGGACGUACAUGAGGAUCACCCAUGUAACUUGCAUG [Exclusion 6 - B - 12:d] (puzzle: Exclusion 6) | – | – | – | 96.2 nM | 33.1 nM | 32 nM |
